In the experiment the target is murine DLL3.HIS (IPA custom, amino acid 25-477) (mouse) (UniProt O88516). Kind of experiment: BLI (Octet), captured on AHC sensor, antigen in solution.

The record followed here is patent publication US20260055180A1.

For orientation: koff means a measure of how fast the partners let go of each other. Read a high koff as fast dissociation. One may read the kon as the second-order rate constant of association. A high value points to faster complex formation.

murine DLL3.HIS (IPA custom, amino acid 25-477) (mouse), sequence (O88516 25-477 limits assumed, form in doubt): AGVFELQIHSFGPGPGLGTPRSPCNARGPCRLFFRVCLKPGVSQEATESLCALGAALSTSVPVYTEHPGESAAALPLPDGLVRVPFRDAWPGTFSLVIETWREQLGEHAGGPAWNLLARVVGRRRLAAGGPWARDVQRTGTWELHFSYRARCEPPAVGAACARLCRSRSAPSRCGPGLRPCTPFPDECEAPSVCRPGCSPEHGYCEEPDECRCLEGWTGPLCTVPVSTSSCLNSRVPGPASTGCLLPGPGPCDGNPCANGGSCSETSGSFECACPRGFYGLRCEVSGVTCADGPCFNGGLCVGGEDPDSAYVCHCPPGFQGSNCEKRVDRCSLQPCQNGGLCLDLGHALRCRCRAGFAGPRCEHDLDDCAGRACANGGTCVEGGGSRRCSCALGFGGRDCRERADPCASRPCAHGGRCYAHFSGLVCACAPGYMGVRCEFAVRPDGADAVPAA

B1: DLL3 VHH (Fc fusion, not shown: small tags and cut ends; a dimerising Fc or GST)
chain: EVQLVESGGGEVQPGGSLRLSCAASGSIFSINAMGWYRQAPGKQRELVAGFTGDTNTIYAESVKGRFTISRDNAKNTVYLQMSSLRAEDTAVYYCAADVQLFSRDYEFYWGQGTLVTVKP
Consider B1, for which the koff was found to be 0.000267 s⁻¹ and the kon is 215000 M⁻¹ s⁻¹.
